# Experimental data reported in patent publication US7141434B2, “Methods of identifying compounds that modulate IL-4 receptor-mediated IgE synthesis utilizing an adenosine kinase” (Rigel Pharmaceuticals, Inc., priority 2002, dated 2006).
# Experiments:
# human AK (hAK) = target: T1, human AK (hAK) (Homo sapiens, UniProt P55263); assay: β-galactosidase yeast two hybrid (YTH) interaction assay; format: binding; conditions: qualitative
# T1 construct: expressed in transfected cells; prey cDNA from the A5T4 reporter cell line (derived from BJAB B-cells)
# Method: Potential binding partners for peptide AR02E8 wt were identified in a β-galactosidase yeast two-hybrid (YTH) assay using peptide AR02E8 wt as bait and a cDNA library constructed from the A5T4 reporter cell line as prey. Binding was assessed by β-galactosidase quantification using BetaFluor (Novagen) as a substrate. A negative interaction control (no cDNA fused downstream of the GAL4 activation domain sequence) was also run. A general outline of the YTH assay is illustrated in FIG. 5A. Following clustering, filtering to remove non-specific bait hits (e.g., GFP and BFP), singletons and clusters recognized by 10 or more cDNA baits (based upon historical YTH assays), and prioritization, 45 prey clones were identified as hits.
# Potential targets identified in the YTH assay were reconfirmed as generally outlined in FIG. 6. The cDNA clones identified as hits in the YTH assay were purified and rescreened for interaction with the AR02E8 wt peptide in a YTH assay. The hit clones were also screened in a control assay for interaction with the BFP using a vector (pGBKT7) that contained only the BFP and not the AR02E8 peptide. At this stage, 27 putative target clones remained.
# The interaction of AR02E8 wt peptide and its mutants with the clones identified as potential targets for the peptide AR02E8 wt was then quantified in a β-galactosidase YTH assay. The YTH assay was performed in the manner described above. A general outline of this YTH assay is illustrated in FIG. 5B. For each clone tested, an interaction profile was developed by comparing the β-galactosidase activity of each mutant to that of the wild type peptide as described above.
# The interaction of these IOF, ROF and LOF mutants with different polypeptides encoded by the putative target clones were quantified using the YTH assay described above. […]
# [1] = test system: IL-4 induced germline ε transcription (ε promoter reporter in A5T4 cells); assay: Re-infection of naive A5T4 reporter cells with BFP-peptide fusion (GFP reporter ratio); format: cell-based, human; conditions: based on reporter ratio; % change calculated after subtracting 1.0 from the ratios
# Method: The ability of peptide AR02E8 wt to inhibit germline ε transcription was confirmed in naive cells. Briefly, Phoenix cells were transfected with a retroviral vector encoding a BFP-AR02E8 wt peptide fusion as described in WO 99/58663 and WO 97/27213. Naïve A5T4 cells were infected with the resultant virions and grown for 3 days. The infected cells were stimulated with IL-4 (60 U/mL) and, after 3 days, the cells were assessed by FACS for BFP and GFP. […] The BFP fluorescence data corresponding to the BFP^+ and BFP^− populations are provided in Panel A. The GFP fluorescence data corresponding to the BFP^+ and BFP-populations are presented in Panel B. The reporter ratio for this purpose is determined as the geometric mean of the GFP fluorescence of the BFP^− population divided by the geometric mean of the GFP fluorescence of the BFP^+ population. The reporter ratio for the AR02E8 in this re-infection assay was 2.93. […]
# TABLE 2 depicts the amino acid sequences (the dual alanine/glycine mutations are underlined) of the mutants tested and the measured reporter ratios when screening in the A5T4 reporter line.
# [2] = test system: ST486 endogenous α promoter; assay: TAQMAN assay of endogenous germline α promoter transcription in ST486 cells; format: cell-based; conditions: ST486 cells stimulated with TGF-β 40 ng/ml; average of 3 values; p=0.1120
# Method: The assay was similar to that described in the immediately preceding section, except that ST486 cells (ATCC # CRL-1647) engineered to express the tetracycline-regulated transactivator were infected and the infected cells were stimulated with TGF-β (40 ng/ml; Peprotech). The primers and probe, which are specific for the transcription product driven by the ST486 endogenous α promoter, were as follows (the probe was labeled at the 5′-end with Fam and at the 3′-end with Tamra): […]
# T1 sequence (P55263 whole entry): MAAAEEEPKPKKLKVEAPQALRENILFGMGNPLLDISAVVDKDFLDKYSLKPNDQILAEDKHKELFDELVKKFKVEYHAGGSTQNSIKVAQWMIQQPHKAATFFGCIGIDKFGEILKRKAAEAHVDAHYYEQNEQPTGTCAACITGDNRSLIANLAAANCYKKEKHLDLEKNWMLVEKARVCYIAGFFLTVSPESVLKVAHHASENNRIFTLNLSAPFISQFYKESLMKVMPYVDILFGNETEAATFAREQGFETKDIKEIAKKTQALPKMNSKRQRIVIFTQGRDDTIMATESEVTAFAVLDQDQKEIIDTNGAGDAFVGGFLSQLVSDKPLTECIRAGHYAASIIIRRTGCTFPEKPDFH
Sequence,binding to human AK in yeast two hybrid interaction assay (human AK (hAK)),functional category as compared to the wild type peptide [1],endogenous α inhibition ratio [2]
"DTMQVQCGAGRSGYVVAFWDVGP (peptide encoded by synthetic oligomer) [AR02E8VC, dual alanine/glycine mutant of AR02E8 wt]",found to bind human AK (hAK),,
"DTMQVQCGVCAGGYVVAFWDVGP (peptide encoded by synthetic oligomer) [AR02E8RS, dual alanine/glycine mutant of AR02E8 wt]",found to bind human AK (hAK),,
"DTMQVQCGVCRSGAGVAFWDVGP (peptide encoded by synthetic oligomer) [AR02E8YV, dual alanine/glycine mutant of AR02E8 wt, loss of function]",,LOF (Cells expressing a loss of function (LOF) mutant have a reporter ratio of <1.11),
"DTMQVQCGVCRSGYVVAFWDVGP (peptide encoded by synthetic oligomer) [AR02E8 wt, 23-residue peptide from a random retroviral library, expressed as BFP-peptide fusion]",found to bind human AK (hAK),,0.79
